In the test the target is HA-tagged HNRNPK (heterogeneous nuclear ribonucleoprotein K), wild type (human) (UniProt P61978). The test can be described thus: co-IP; anti-HA agarose beads on lysates of Huh7.5 cells stably expressing HA-tagged HNRNPK or its deletion mutants, 48 h after electroporation with a subgenomic JFH1 replicon or genomic HCV RNA; lysis buffer 20 mM Tris-HCl pH 7.5, 0.5% Nonidet P-40, 1 mM sodium deoxycholate, 100 mM NaCl; 3 h at 4°C; elution with HA peptide; immunoblot; cells with non-tagged HNRNPK as control. (A replicon is a self-replicating genome or part of one, used to study replication in cells.)

For HCV core protein (natural protein), the percent of the intracellular HCV protein coprecipitated amounted to 1%.

Values taken from PMC4287573.
